We go through five molecules from paper PMC6145892, “Roquin targets mRNAs in a 3′-UTR-specific manner by different modes of regulation”.

Data set [1] addresses T1, Roquin-1 zinc finger (Znf, CCCH) (UniProt Q4VGL6 411-454).
T1 chain: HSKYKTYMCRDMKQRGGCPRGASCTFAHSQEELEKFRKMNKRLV
As to the kind of experiment: ITC; Zn2+; n=1.0; ITC at room temperature, RNA titrated into 10-40 uM protein; buffer 20 mM Tris pH 7.0, 150 mM NaCl, 25 uM ZnCl2, 2 mM TCEP, 0.02% azide (stated for Znf); NMR HSQC 50 uM protein, RT, 10% D2O. As to conditions: protein: recombinant; tags: His6-GST removed by TEV; chain copies: 2; single-stranded. Background: Isothermal titration calorimetry measures the heat released or taken up as one component is titrated into another.

Data set [2] concerns the target T1, Roquin-1 zinc finger (Znf, CCCH). As to the kind of experiment: ITC; Zn2+; n=0.48; ITC at room temperature, RNA titrated into 10-40 uM protein; buffer 20 mM Tris pH 7.0, 150 mM NaCl, 25 uM ZnCl2, 2 mM TCEP, 0.02% azide (stated for Znf); NMR HSQC 50 uM protein, RT, 10% D2O. As to conditions: protein: recombinant; tags: His6-GST removed by TEV; chain copies: 2; single-stranded.

Data set [3] concerns the target T2, Roquin-1 ROQ domain (UniProt Q4VGL6 171-326).
T2 sequence: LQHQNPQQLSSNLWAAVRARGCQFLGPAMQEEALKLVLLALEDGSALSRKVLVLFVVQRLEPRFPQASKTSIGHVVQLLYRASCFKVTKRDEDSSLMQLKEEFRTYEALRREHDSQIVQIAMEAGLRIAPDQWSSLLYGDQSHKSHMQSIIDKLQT
As to the kind of experiment: ITC; complete loss of binding; ITC at room temperature, RNA titrated into 10-40 uM protein; buffer 20 mM Tris pH 7.0, 150 mM NaCl, 25 uM ZnCl2, 2 mM TCEP, 0.02% azide (stated for Znf); NMR HSQC 50 uM protein, RT, 10% D2O. To be noted: protein: recombinant; tags: His6-thioredoxin, TEV-removable; single-stranded.

The target in data set [4] is T1, Roquin-1 zinc finger (Znf, CCCH). The experiment in a line: ITC; Zn2+; n=0.5; ITC at room temperature, RNA titrated into 10-40 uM protein; buffer 20 mM Tris pH 7.0, 150 mM NaCl, 25 uM ZnCl2, 2 mM TCEP, 0.02% azide (stated for Znf); NMR HSQC 50 uM protein, RT, 10% D2O. To be noted: protein: recombinant; tags: His6-GST removed by TEV; chain copies: 2; single-stranded, no imino signals.

The target of data set [5] is T2, Roquin-1 ROQ domain. The experiment in a line: ITC; n=0.81; ITC at room temperature, RNA titrated into 10-40 uM protein; buffer 20 mM Tris pH 7.0, 150 mM NaCl, 25 uM ZnCl2, 2 mM TCEP, 0.02% azide (stated for Znf); NMR HSQC 50 uM protein, RT, 10% D2O. As to conditions: protein: recombinant; tags: His6-thioredoxin, TEV-removable; single-stranded, no imino signals.
Data set [6] deals with T1, Roquin-1 zinc finger (Znf, CCCH). The experiment in a line: ITC; Zn2+; ITC at room temperature, RNA titrated into 10-40 uM protein; buffer 20 mM Tris pH 7.0, 150 mM NaCl, 25 uM ZnCl2, 2 mM TCEP, 0.02% azide (stated for Znf); NMR HSQC 50 uM protein, RT, 10% D2O. As to conditions: protein: recombinant; tags: His6-GST removed by TEV; chain copies: 2; single-stranded.
Data set [7] shares this target. As to the kind of experiment: ITC; Zn2+; n=0.45; ITC at room temperature, RNA titrated into 10-40 uM protein; buffer 20 mM Tris pH 7.0, 150 mM NaCl, 25 uM ZnCl2, 2 mM TCEP, 0.02% azide (stated for Znf); NMR HSQC 50 uM protein, RT, 10% D2O. To be noted: protein: recombinant; tags: His6-GST removed by TEV; chain copies: 2; single-stranded.

B1: LBE 5'-half 9-mer (ssRNA)
RNA: UUUUAACAU
In the case of B1, the Kd in data set [1] is 35.6 ± 6.8 µM.

B2: LBE mutant (GCG) (ssRNA)
RNA: UUUUAAGCGUAUUUU
For the molecule B2, the Kd in data set [2] amounted to 21.4 ± 3.6 µM. Further, the binding result with Roquin-1 ROQ domain [3] is given as “no binding”.

B3: LBE (Nfkbiz 3'-UTR 15-mer) (ssRNA)
RNA: UUUUAACAUUAUUUU
Turning to B3, the Kd was determined as 26.3 ± 3.4 µM in data set [4] and 3.6 ± 0.4 µM in the data set with Roquin-1 ROQ domain [5].

B4: (CA)5 10-mer (ssRNA)
RNA: CACACACACA
Turning to B4, the binding result in data set [6] is reported as “no binding”.

B5: (GU)5 10-mer (ssRNA)
RNA: GUGUGUGUGU
B5: in data set [7], the Kd came out at 52.5 ± 7.2 µM.

Usually Kd stands for the free concentration of one partner at which half of the binding sites on the other are occupied at equilibrium, for simple one-to-one binding.
